Substitutions are numbered along the chain they refer to.
T1: human IL-2Rβ (human, UniProt P14784 27-239)
T1 sequence (looked up): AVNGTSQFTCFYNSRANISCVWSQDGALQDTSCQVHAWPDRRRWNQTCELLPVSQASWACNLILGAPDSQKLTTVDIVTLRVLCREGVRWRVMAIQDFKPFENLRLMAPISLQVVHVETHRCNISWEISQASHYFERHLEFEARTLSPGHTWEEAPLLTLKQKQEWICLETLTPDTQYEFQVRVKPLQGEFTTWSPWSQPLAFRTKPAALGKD

T2: human gamma (γ) common chain expressed on CHO cells (human, UniProt P31785 23-369)
T2 construct: whole, on cells; Control protein; also called human IL-2R-γ common subunit; human γ-common
T2 sequence (looked up): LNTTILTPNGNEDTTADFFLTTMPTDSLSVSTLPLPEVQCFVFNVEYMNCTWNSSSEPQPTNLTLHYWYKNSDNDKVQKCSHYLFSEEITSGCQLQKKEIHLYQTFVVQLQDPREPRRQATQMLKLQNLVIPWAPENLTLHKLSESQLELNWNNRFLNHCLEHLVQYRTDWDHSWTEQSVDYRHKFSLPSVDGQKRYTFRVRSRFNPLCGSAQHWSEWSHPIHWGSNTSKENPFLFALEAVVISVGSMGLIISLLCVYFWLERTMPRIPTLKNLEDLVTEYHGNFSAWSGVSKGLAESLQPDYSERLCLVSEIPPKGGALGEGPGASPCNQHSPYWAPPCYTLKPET

B1: AbD (antibody, IgG1, V domains shown)
VH: QVQLQESGPGLVKPSETLSLTCAVSGYSISSGYYWGWIRQPPGKGLEWIGSISHTGNTYYNPPLKSRVTISVDTSKNQFSLKLSSVTAADTAVYYCARGGGISRPEYWGQGTLVTVSS
VL: SSELTQDPAVSVALGQTVRITCQGDSLRTYYASWYQQKPGQAPVLVIYGKHKRPSGIPDRFSGSSSGNTASLTITGAQAEDEADYYCVTRNRYGNPHVLFGGGTQLTVL
notes: As for AbA: IgG1/lambda, CDR3 graft, residue limits derived; also called VHP/VL13
B2: AbL (antibody, IgG1, V domains shown)
VH: B1 VH with G99F, G100M, I102F, S103G
VL: B1 VL
notes: As for AbA: IgG1/lambda, CDR3 graft, residue limits derived; also called VH3/VL13
B3: AbE (antibody, IgG1, V domains shown)
VH: B1 VH
VL: B1 VL with V88M, T89A, N91S, Y93K
notes: As for AbA: IgG1/lambda, CDR3 graft, residue limits derived; also called VHP/VL14
B4: AbI (antibody, IgG1, V domains shown)
VH: B1 VH
VL: B1 VL with V88I, T89A, N91S, R92N, Y93K
notes: As for AbA: IgG1/lambda, CDR3 graft, residue limits derived; also called VHP/VL24
B5: AbH (antibody, IgG1, V domains shown)
VH: B1 VH
VL: B1 VL with T89A, N91A, R92V, Y93R
notes: As for AbA: IgG1/lambda, CDR3 graft, residue limits derived; also called VHP/VL19
B6: AbM (antibody, IgG1, V domains shown)
VH: B1 VH with G99F, G100F, I102F, S103G
VL: B1 VL
notes: As for AbA: IgG1/lambda, CDR3 graft, residue limits derived; also called VH6/VL13
B7: AbN (antibody, IgG1, V domains shown)
VH: B1 VH with G99F, G100F, I102F, S103G
VL: B1 VL with V88I, T89A, N91S, R92N, Y93K
notes: As for AbA: IgG1/lambda, CDR3 graft, residue limits derived; also called VH6/VL24

Molecular target: T1, human IL-2Rβ
Test: SPR, Ab captured
Experimental: (§1) The specificity of binding of a subset of transiently expressed anti-IL-21R binding proteins (here antibodies) was tested on a BIACORE™ 2000 surface plasmon resonance instrument. Anti-human-IgG, anti-murine immunoglobulin antibodies, and murine IL-21R-H/F were immobilized onto a research-grade carboxymethyl-dextran chip (CM5) using standard amine coupling. The sensor chip surface was activated with EDC/NHS for 7 min at a flow rate of 20 μl/min. The first flow cell was used as reference surface to correct for bulk refractive index, matrix effects, and nonspecific binding. […] Remaining activated groups were blocked with 1.0 M ethanolamine (pH 8.0). The molecular weights of the anti-human IgG and the anti-murine IgG were both 150 kD, and the molecular weight of the IL-21R monomer was 27 kD.
(§2) Conditioned media containing anti-IL-21R antibodies and antibody controls (murine anti-human IL-2Rβ and murine anti-human IL-4R(R&D Systems, Minneapolis, Minn.); human anti-human IL-13 (Wyeth, Cambridge, Mass.)) were diluted in HBS/EP buffer supplemented with 0.2% bovine serum and injected onto all four flow cells of the BIACORE™ chip, capturing 500-700 (RU) of antibody on the species-appropriate capture antibody. Following a 5 sec washing period, 50 nM solutions of a positive control protein (murine IL-21R-H/F), two human proteins related to IL-21R (human IL-2Rβ and human sIL-4R(R&D Systems)), or an unrelated His/FLAG-tagged protein (human IL-13-H/F) were injected over the captured antibodies on the chip. The association and dissociation phases were monitored for 120 and 180 sec, respectively, followed by two 5 μl injections of glycine (pH 1.5) to regenerate a fully active capturing surface. All binding experiments were done at 25° C. in HBS/EP buffer. Blank and buffer effects were subtracted for each sensorgram using double referencing.

Binder | binding result
B1 | no binding (tested: 50 nM)
B2 | no binding (tested: 50 nM)
B3 | no binding (tested: 50 nM)
B4 | no binding (tested: 50 nM)
B5 | no binding (tested: 50 nM)

Molecular target: T3, human soluble IL-4R (human, UniProt P24394 26-232, limits assumed)
T3 construct: also called human sIL-4R
Test: SPR, Ab captured
Experimental: as §1, §2

Binder | binding result
B1 | no binding (tested: 50 nM)
B2 | no binding (tested: 50 nM)
B3 | no binding (tested: 50 nM)
B4 | no binding (tested: 50 nM)
B5 | no binding (tested: 50 nM)

Molecular target: T4, human IL-13-His/FLAG (human, UniProt P35225 35-146, limits assumed)
T4 construct: Unrelated His/FLAG-tagged control; also called human IL-13-H/F
T4 sequence (P35225 35-146 limits assumed): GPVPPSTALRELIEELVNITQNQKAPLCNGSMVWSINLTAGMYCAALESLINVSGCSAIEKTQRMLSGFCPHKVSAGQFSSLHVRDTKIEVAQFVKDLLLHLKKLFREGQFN
Test: SPR, Ab captured
Experimental: as §1, §2

Binder | binding result
B1 | no binding (tested: 50 nM)
B2 | no binding (tested: 50 nM)
B3 | no binding (tested: 50 nM)
B4 | no binding (tested: 50 nM)
B5 | no binding (tested: 50 nM)

Molecular target: T5, human IL-21R expressed on cells (human, UniProt Q9HBE5 20-538)
T5 construct: also called human IL-21R-BaF3; human IL-21R-TF1
T5 sequence (Q9HBE5 20-538 limits assumed): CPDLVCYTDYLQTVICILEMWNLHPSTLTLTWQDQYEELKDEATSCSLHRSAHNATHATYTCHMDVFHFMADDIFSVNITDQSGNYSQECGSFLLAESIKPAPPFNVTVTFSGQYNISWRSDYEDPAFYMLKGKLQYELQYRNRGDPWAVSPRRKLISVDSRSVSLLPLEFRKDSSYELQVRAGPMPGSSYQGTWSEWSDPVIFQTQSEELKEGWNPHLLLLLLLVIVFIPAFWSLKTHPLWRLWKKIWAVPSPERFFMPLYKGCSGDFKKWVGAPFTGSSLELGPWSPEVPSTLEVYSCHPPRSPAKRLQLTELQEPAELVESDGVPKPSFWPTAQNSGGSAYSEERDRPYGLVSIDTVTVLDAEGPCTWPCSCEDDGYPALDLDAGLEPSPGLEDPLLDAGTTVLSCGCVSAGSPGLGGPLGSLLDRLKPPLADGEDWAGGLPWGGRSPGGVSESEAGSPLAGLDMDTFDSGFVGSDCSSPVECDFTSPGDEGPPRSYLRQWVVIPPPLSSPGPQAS
Test: cell ELISA, CHO cells
Experimental: (§3) A subset of binding proteins was tested for binding to rat, cynomolgus monkey, human IL-21R, or human IL-2R-γ common subunit expressed transiently on the surfaces of CHO-PA-Dukx cells. Cells were transfected 48 hr prior to the assay. On the day of the assay, cells were washed gently 5× in PBS containing 0.9 mM CaCl₂ and 0.45 mM MgCl₂ (PBS/CaMg) on an automated plate washer (Titertek, Huntsville, Ala.), and blocked for 1 hr at RT in PBS/CaMg/5% nonfat dry milk. Conditioned media from transiently expressed anti-IL-21R IgGs were serially diluted in blocking buffer and added to the cells in the blocked plates for 1 hr at RT. Cells were washed 5× with PBS/CaMg and then incubated with horseradish peroxidase-conjugated anti-human IgG for 1 hr at RT. Cells were then washed 10× in PBS/CaMg and all of the wash buffer was removed. Cells were incubated with 100 μl TMB until the color reaction reached saturation, stopped with 100 μl of 0.18 M H₂SO₄, and read at A450 on a Perkin Elmer ENVISION™ plate reader.

Binder | A450 (13 nM Ab) [A450]
B1 | 1.25
B6 | 1.2
B2 | 1.45
B3 | 1.26
B7 | 1.21
B4 | 1.24
B5 | 1.35

Molecular target: T6, rat IL-21R expressed on cells (rat)
T6 construct: whole, on cells
Test: cell ELISA, CHO cells
Experimental: as §3

Binder | A450 (13 nM Ab) [A450]
B1 | 0.874
B6 | 0.78
B2 | 1.26
B3 | 1.11
B7 | 0.702
B4 | 1.09
B5 | 1.1

Molecular target: T7, cynomolgus monkey IL-21R expressed on cells (cynomolgus monkey, UniProt G7Q0S8 41-559)
T7 construct: whole, on cells
Test: cell ELISA, CHO cells
Experimental: as §3

Binder | A450 (13 nM Ab) [A450]
B1 | 1.38
B6 | 1.45
B2 | 1.51
B3 | 1.42
B7 | 1.5
B4 | 1.21
B5 | 1.32

Molecular target: T2, human gamma (γ) common chain expressed …
Test: cell ELISA, CHO cells
Experimental: as §3

Binder | A450 (13 nM Ab) [A450]
B7 | 0.136
B4 | 0.107

Molecular target: T5, human IL-21R expressed on cells
Test: cell-based or functional assay

Binder | Human IL-21R-BaF3 Proliferation IC50 [nM] | Human IL-21R-TF1 Proliferation IC50 [nM]
B1 | 0.91 | 2.67
B6 | 1.08 | 4.22
B2 | 0.68 | 4.25
B3 | 0.56 | 2.28
B7 | 0.5 | 1.59
B4 | 1 | 3.8
B5 | 0.94 | 3.64

Molecular target: murine IL-21R expressed on cells (murine, UniProt Q9JHX3 20-529)
Sequence (Q9JHX3 20-529 limits assumed): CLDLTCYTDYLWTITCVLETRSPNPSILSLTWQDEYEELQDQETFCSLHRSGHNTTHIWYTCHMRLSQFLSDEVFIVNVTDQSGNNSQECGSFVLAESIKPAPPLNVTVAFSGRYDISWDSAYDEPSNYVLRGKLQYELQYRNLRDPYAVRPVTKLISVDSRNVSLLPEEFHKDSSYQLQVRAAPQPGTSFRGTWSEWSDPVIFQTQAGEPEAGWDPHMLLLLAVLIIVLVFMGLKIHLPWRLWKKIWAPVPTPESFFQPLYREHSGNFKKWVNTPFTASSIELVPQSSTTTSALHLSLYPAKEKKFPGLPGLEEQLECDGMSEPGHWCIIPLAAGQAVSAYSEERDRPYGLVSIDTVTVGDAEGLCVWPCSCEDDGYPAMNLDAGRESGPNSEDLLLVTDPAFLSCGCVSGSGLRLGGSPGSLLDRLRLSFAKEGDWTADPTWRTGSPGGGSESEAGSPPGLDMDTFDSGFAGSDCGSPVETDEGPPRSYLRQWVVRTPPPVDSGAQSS
Test: cell-based or functional assay

Binder | Murine IL-21R-BaF3 Proliferation IC50 [nM]
B1 | 0.01
B6 | 0.125
B2 | 0.227
B3 | 0.04
B7 | 0.435
B4 | 0.224
B5 | 0.327

Molecular target: T6, rat IL-21R expressed on cells
Test: cell-based ELISA on CHO cells transiently expressing rat IL-21R; HRP anti-human IgG, A450
Experimental: (§4) FIG. 6(a-l) depicts the binding of 21 anti-IL-21R IgGs to CHO cells transiently expressing human IL-21R (FIGS. 6a-c), rat IL-21R (FIGS. 6d-f), cynomolgus monkey IL-21R (FIGS. 6g-i), and human gamma common chain (FIGS. 6j-1). CHO cells were transiently transfected with IL-21R or the control gamma common chain, and binding was detected with HRP-conjugated anti-human IgG in a cell-based ELISA.
as §3

Binder | EC50 (read off the curve) [nM]
B3 | ~0.8

Molecular target: T5, human IL-21R expressed on cells
Test: cell-based ELISA on CHO cells transiently expressing human IL-21R; HRP anti-human IgG, A450
Experimental: as §4, §3

Binder | EC50 (read off the curve) [nM]
B1 | ~0.9
B2 | ~1
B4 | ~0.9
B5 | ~0.4

Molecular target: T7, cynomolgus monkey IL-21R expressed on …
Test: cell-based ELISA on CHO cells transiently expressing cynomolgus monkey IL-21R; HRP anti-human IgG, A450
Experimental: as §4, §3

Binder | EC50 (read off the curve) [nM]
B1 | ~2
B6 | ~3
B2 | ~0.9
B4 | ~0.4
B5 | ~0.5

Molecular target: T2, human gamma (γ) common chain expressed …
Test: cell-based ELISA on CHO cells transiently expressing human gamma common chain; HRP anti-human IgG, A450
Experimental: as §4, §3

Binder | binding result
B4 | no binding (tested: 13 nM)

From patent publication US20120276102A1 (Pfizer, published 2012)
